Results on one substance are retold here after US7794710.

The assay has as its target human B7-H1 (hB7-H1) on the cell surface (human) (UniProt Q9NZQ7). Put plainly: cell-based or functional assay.
Sequence of UniProt Q9NZQ7 (Q9NZQ7 19-290 limits assumed): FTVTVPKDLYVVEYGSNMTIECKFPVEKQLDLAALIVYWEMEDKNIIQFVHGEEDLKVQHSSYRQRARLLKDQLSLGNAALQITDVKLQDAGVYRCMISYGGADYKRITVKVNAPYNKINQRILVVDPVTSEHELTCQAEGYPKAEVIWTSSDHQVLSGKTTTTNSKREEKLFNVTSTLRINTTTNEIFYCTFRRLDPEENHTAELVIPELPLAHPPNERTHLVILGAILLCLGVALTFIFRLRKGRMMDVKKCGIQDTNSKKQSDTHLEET

5H1 mAb specific for hB7-H1 (antibody) had an inhibition of apoptosis of M15 CTL cultured with B7-H1/624mel cells of over 50%.
